{
  "source": "paper PMC11981803",
  "key": {"[1]": {"molecular_target": "transmembrane domain of SaeS (SaeS TM), reconstituted into DMPC/DHPC bicelles (Staphylococcus aureus)", "sequence (Q2FIT5 whole entry, the tested form may be a part)": "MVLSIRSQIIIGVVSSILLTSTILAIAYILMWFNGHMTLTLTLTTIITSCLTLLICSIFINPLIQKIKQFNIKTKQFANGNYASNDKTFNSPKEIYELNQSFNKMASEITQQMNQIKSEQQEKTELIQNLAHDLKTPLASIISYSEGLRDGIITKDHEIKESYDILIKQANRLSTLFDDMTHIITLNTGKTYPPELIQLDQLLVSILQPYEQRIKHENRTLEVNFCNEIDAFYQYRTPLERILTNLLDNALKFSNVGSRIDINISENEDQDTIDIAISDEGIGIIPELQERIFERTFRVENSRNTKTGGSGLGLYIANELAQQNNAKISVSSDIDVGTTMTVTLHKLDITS", "experiment": "SDS-PAGE"}, "[2]": {"molecular_target": "transmembrane domain of SaeS (SaeS TM), reconstituted into DMPC/DHPC bicelles (Staphylococcus aureus)", "experiment": "SPR"}},
  "data": [
    {"substance": "transmembrane domain of SaeS (SaeS TM), reconstituted into DMPC/DHPC bicelles (domain or fragment)", "values": [
      {"measurement": "stoichiometry N", "setting": "[1]", "result": 2}
    ]},
    {"substance": "Human neutrophil defensin-1 (from UniProt P59665 65-94) (peptide)", "values": [
      {"measurement": "Kd", "setting": "[2]", "result": 1.07, "unit": "µM"},
      {"measurement": "koff", "setting": "[2]", "result": 0.0186, "unit": "s⁻¹"},
      {"measurement": "kon", "setting": "[2]", "result": 17400, "unit": "M⁻¹ s⁻¹"}
    ]}
  ]
}
